These results are taken from patent US20070059727A1.

In the assay the target is microtubules assembled from fluorescein-modified bovine brain tubulin (α-/β-tubulin heterodimers) (bovine). Description: cell-based or functional assay.

“Glutathione S-Transferase (GST)-tagged γ-Tubulin fusion protein (from UniProt P23258 1-451)” yielded an average MT length after 5 min of polymerization (MTs on GST-γ-tubulin-functionalized gold pads against MTs grown in solution) of 1.68 micron and an average MT length after 10 min of polymerization (MTs on GST-γ-tubulin-functionalized gold pads against MTs grown in solution) of 3.47 micron.
